The target of experiment [1] is T1, human FcRn (soluble human FcRn complexed with β2-microglobulin) (human, UniProt P61769 21-119).
T1 construct: also called hFcRn
The experiment in a line: Biacore SPR, pH 7.0, 25 C; antibody captured by Protein L, human FcRn as analyte.

For experiment [2], the target named is T2, human FcRn (human).
T2 construct: Soluble human FcRn complexed with beta2-microglobulin; also called hFcRn; soluble human FcRn complexed with β2-microglobulin
The experiment in a line: SPR (Biacore), pH 7.0, 25 C; antibody captured on Protein L, human FcRn injected. A general note: Surface plasmon resonance follows binding to a sensor surface in real time, without labels.

The target of experiment [3] is T3, human FcRn (human).
T3 construct: also called hFcRn; soluble human FcRn complexed with β2-microglobulin
The experiment in a line: SPR (Biacore), pH 7.0, 25 C, antibody captured by Protein L, human FcRn as analyte.

Experiment [4] concerns the target T4, mouse FcγRI (mouse, UniProt P26151 25-297).
T4 construct: Bought; also called mFcgRI
T4 sequence (looked up): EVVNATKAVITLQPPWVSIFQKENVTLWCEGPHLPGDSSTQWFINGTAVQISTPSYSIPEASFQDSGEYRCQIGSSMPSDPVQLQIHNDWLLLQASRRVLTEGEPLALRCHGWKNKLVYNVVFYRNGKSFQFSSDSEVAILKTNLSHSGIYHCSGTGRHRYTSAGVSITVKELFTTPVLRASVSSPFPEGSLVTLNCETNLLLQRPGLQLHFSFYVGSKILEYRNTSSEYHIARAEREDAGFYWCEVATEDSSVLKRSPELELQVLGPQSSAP
The experiment in a line: SPR (Biacore), protein L capture, pH 7.4, 25 C.

The target of experiment [5] is T5, mouse FcγRIIb (mouse, UniProt P08101 40-217, limits assumed).
T5 construct: Bought; also called mFcgRIIb
T5 sequence (looked up): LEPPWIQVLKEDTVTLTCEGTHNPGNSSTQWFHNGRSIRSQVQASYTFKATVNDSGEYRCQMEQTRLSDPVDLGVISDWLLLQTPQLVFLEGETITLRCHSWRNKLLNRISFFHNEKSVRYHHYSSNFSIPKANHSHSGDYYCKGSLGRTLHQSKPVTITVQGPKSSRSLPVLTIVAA
The experiment in a line: SPR (Biacore), protein L capture, pH 7.4, 25 C.

The target in experiment [6] is T6, mouse FcγRIII (mouse, UniProt P08508 31-215).
T6 construct: Bought; also called mFcgRIII
T6 sequence (looked up): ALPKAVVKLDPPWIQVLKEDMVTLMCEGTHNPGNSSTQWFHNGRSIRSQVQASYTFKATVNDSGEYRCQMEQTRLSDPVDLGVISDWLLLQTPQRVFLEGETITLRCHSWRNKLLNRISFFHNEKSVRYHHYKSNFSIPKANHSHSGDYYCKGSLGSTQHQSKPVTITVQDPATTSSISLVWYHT
The experiment in a line: SPR (Biacore), protein L capture, pH 7.4, 25 C.

For experiment [7], the target named is T7, human FcγRIIb (human, UniProt P31994 43-217, limits assumed).
T7 construct: also called FcgRIIb; FcγIIB
T7 sequence: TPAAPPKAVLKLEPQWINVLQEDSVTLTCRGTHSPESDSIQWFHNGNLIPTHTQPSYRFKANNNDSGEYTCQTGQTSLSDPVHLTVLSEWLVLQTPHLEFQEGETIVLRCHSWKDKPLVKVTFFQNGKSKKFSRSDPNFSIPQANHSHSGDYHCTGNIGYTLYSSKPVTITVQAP
The experiment in a line: SPR (Biacore), antibody captured, FcγR as analyte.

Experiment [8] addresses T8, human FcγRIIIa(F) (human, UniProt P08637 17-208, limits assumed).
T8 construct: also called hFcgRIIIa(F); allotype F158
The experiment in a line: SPR (Biacore), captured antibody, FcgR as analyte, HBS-EP+, 25 C; bound amount corrected for captured antibody, relative to GpH7-G1d/GpL16-k0.

Where a chain is given by its changes, count along the chain named. Names may count otherwise.

T8 sequence (P08637 other isoform, or with tags, fused parts or gaps limits assumed): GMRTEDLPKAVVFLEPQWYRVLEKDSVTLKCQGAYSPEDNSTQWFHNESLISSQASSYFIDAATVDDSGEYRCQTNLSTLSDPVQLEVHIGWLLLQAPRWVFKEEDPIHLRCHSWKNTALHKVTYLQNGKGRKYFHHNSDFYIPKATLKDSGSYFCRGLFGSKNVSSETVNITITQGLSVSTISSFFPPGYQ
T1 sequence (chain, as listed by the source limits assumed, chain 1 of 2): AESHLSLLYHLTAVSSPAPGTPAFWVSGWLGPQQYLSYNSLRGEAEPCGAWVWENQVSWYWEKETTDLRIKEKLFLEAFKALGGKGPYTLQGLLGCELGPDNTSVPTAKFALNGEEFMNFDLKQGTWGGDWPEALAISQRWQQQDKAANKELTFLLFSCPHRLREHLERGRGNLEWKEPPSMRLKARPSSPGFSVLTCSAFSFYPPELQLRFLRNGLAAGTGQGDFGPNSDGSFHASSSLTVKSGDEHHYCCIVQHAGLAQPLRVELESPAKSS
T1 sequence (P61769 21-119 limits assumed, chain 2 of 2): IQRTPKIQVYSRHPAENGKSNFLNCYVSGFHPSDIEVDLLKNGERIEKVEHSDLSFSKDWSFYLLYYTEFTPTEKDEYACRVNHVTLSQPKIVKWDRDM

B1: IgG1-F207 (antibody, name in EU numbering)
heavy: QVQLQESGPGLVKPSETLSLTCAVSGHSISHDHAWSWVRQPPGEGLEWIGFISYSGITNYNPSLQGRVTISRDNSKNTLYLQMNSLRAEDTAVYYCARSLARTTAMDYWGEGTLVTVSSASTKGPSVFPLAPSSKSTSGGTAALGCLVKDYFPEPVTVSWNSGALTSGVHTFPAVLQSSGLYSLSSVVTVPSSSLGTQTYICNVNHKPSNTKVDKKVEPKSCDKTHTCPPCPAPELLGGPSVFLFPPKPKDTLYISRTPEVTCVVVDVSHEDPEVKFNWYVDGVEVHNAKTKPREEQYNSTYRVVSVLKVLHQDWLNGKEYKCKVSNKALPAPIEKTISKAKGQPREPQVYTLPPSRDELTKNQVSLTCLVKGFYPSDIAVEWESNGQPENNYKTTPPVLDSDGSFFLYSKLTVDKSRWQQGNVFSCSVMHEALHYHYTQKSLSLSP
light: not shown
notes: VH3-IgG1 Fc variant; EU numbering
As for B1, in experiment [1], the Kd (as a rule, the concentration at which binding is half-saturated) was determined as 940 nM. That is a sub-micromolar value.

B2: IgG1-F722 (antibody)
heavy: B1 heavy with P240D, K309T, A329G
light: not shown
notes: Substitutions by EU numbering; copies: 2 + 2
As for B2, the Kd in experiment [2] is 270 nM.

B3: F1113 (antibody, name in EU numbering)
heavy: B1 heavy with K309T, Y438V, S442D
light: not shown
notes: copies: 2 + 2
B3 returned a Kd in experiment [3] of 118 nM.

B4: mPM1-mIgG1-mF39 (antibody)
heavy: DVQLQESGPVLVKPSQSLSLTCTVTGYSITSDHAWSWIRQFPGNKLEWMGYISYSGITTYNPSLKSRISITRDTSKNQFFLQLNSVTTGDTSTYYCARSLARTTAMDYWGQGTSVTVSSAKTTPPSVYPLAPGSAAQTNSMVTLGCLVKGYFPEPVTVTWNSGSLSSGVHTFPAVLQSDLYTLSSSVTVPSSTWPSETVTCNVAHPASSTKVDKKIVPRDCGCKPCICTVKEVSKVFIFPPKPKDVLYITLEPKVTCVVVDISKDDPEVQFSWFVDDVEVHTAQTQPREEQFNSTFRSVSELPIMHQDWLNGKEFKCRVNSAAFPAPIEKTISKTKGRPKAPQVYTIPPPKEQMAKDKVSLTCMITDFFPEDITVEWQWNGQPAENYKNTQPIMDTDGSYFVYSKLNVQKSNWEAGNTFTCSVLHEGLKNHHTEKSLSHSPGK
light: DIQMTQTTSSLSASLGDRVTISCRASQDISSYLNWYQQKPDGTIKLLIYYTSRLHSGVPSRFSGSGSGTDYSLTINNLEQEDIATYFCQQGNTLPYTFGGGTKLEIKRADAAPTVSIFPPSSEQLTSGGASVVCFLNNFYPKDINVKWKIDGSERQNGVLNSWTDQDSKDSTYSMSSTLTLTKDEYERHNSYTCEATHKTSTSPIVKSFNRNEC
notes: copies: 2 + 2
For the molecule B4, the binding result in experiment [4], in experiment [5] and in experiment [6] was “no binding” throughout.

B5: mPM1-mIgG1-mF40 (antibody)
heavy: B4 heavy with K429H, N430W
light: B4 light
notes: copies: 2 + 2
Turning to B5, the binding result in experiment [4], in experiment [5] and in experiment [6] was “no binding” in each case.

B6: GpH7-B3 D270W / GpL16-k0 (antibody, human IgG1)
heavy: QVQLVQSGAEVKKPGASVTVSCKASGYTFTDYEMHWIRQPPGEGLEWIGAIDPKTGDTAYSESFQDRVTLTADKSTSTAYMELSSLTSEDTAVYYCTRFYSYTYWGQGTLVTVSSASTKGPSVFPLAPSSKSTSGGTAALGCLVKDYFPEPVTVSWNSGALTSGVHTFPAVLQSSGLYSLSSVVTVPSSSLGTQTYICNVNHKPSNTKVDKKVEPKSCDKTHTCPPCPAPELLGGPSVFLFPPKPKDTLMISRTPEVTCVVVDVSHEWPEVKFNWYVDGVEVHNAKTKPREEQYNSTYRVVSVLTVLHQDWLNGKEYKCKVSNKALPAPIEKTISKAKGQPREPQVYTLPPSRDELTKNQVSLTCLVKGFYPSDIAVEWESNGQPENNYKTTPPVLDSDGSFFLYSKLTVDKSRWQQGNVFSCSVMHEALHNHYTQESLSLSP
light: DIVMTQSPLSLPVTPGEPASISCQASESLVHSNRNTYLHWYLQKPGQSPQLLIYKVSNRFSGVPDRFSGSGSGTDFTLKISRVEAEDVGVYYCSQNTHVPPTFGQGTKVEIE
notes: B3 variant: anti-glypican-3 IgG1 (constant region B3 = G1d with K439E) with one substitution, EU numbering; also called B3 variant D270W; copies: 2 + 2
As to B6, the “relative binding activity (amount bound / amount bound by GpH7-B3/GpL16-k0 x100)” value in experiment [7] is -2 % of GpH7-B3/GpL16-k0.

B7: GpH7-B3/GpL16-k0 (antibody, human IgG1)
heavy: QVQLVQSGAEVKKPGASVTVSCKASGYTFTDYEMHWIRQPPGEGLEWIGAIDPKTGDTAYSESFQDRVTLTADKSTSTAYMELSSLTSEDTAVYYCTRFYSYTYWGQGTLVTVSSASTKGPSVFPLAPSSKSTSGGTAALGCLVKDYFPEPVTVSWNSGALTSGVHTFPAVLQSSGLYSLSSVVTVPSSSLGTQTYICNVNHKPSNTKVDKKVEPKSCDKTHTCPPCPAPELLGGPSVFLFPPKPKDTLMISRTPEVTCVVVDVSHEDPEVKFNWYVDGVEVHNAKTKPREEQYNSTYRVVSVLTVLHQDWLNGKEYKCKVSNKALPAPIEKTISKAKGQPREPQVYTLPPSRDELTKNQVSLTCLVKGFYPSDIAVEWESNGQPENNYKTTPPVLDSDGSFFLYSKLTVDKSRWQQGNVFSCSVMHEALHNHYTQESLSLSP
light: B6 light
notes: Anti-glypican-3 antibody, human IgG1 constant region B3
With B7, the “relative binding activity (bound amount / bound amount of GpH7-G1d/GpL16-k0 x 100)” value in experiment [8] turned out to be 88.

The values above are taken from patent US20140105889A1 (published 2014).
